Results on 1 molecule are retold here after paper PMC3858276.

The assay has as its target both RasaN and SLP-76. The assay can be described thus: supernatant depletion assay (pull-down titration); biotinylated SH2 domains on streptavidin-coated DynaBeads, washed once and serially diluted in 1x PBS; ADAP at 8 nM (PBS with 0.1% E. coli extract), 10 min at RT; unbound ADAP in the supernatant read by in-gel fluorescence; Kd estimated from the plot.

A word on the Kd: it is the concentration at which binding is half-saturated.

B1: phosphorylated SNAP-ADAP fusion protein (ADAP amino acids 570-690) (domain or fragment)
chain: DYDSLKLKKDSLGAPSRPIEDDQEVYDDVAEQDDISSHSQSGSGGIFPPPPDDDIYDGIEEEDADDGFPAPPKQLDMGDEVYDDVDTSDFPVSSAEMSQGTNVGKAKTEEKDLKKLKKQEK
modifications: phosphotyrosine (in vitro phosphorylation by Fyn kinase, approx. 90% of each phosphorylation site; sites in Table S1); BG-647 dye on the SNAP-tag
For B1, the Kd was 60 to 90 nM.
